# Source: the DeepSol protein solubility set
# Experiment: soluble on expression in E. coli; label from the status in PepcDB or PDB records
row,Sequence,soluble on expression in E. coli
1,MSRRRKANPTKLSENAKKLAKEVENSQEENDCDMLAKPQTPTIIIPGHMDDTPNPAGSPHDASIKSSSSTISDHTSTSATTGISDFPDILAQTEHGCSVLIDGNHLREIINSVDTQDGKQDLLSDVIRQLTSIKERLTNDESPVKDDLKEDPDDMSPMLHAGNFDSEMLLRQHELMQHQQQQMIIANMLKATQSLPLLFNGGLNYEAILNNPVLNATIAGHLPNPLASNISLLQKSISAKLAAAGNMQTVEKVETPLNLSKDTPSPTAIPQSPLSGFRLPYSLGTNYGSDGQLFNNCSPNSSGKSTPGNTSVTSEVATPRPQAKSPNHIKRPMNAFMVWARDERRKILKAYPDMHNSNISKILGSRWKGMSNSEKQPYYEEQSRLSKLHMEQHPDYRYRPRPKRTCVIDGKKVRVNEYKTIMKTKKDLMWGDEPGFSQPSDLQMDLASHVNLLNDLTQHHHQSHLLQTAE,not soluble
2,MSRSSLVDPSFELSDPCPDIHALFIQFDARFFGGSLACCEVKWSPRMYACAGICSYEIRGGRGGLCSIRLSKPLLTLRPRSDLVETLLHEMIHAYLFVKERNRDRDGHGPQFQAHMHRINQAGGTNITIYHSFHDEVRLYKQHWWRCSGPCRDRRPFFGYVKRSCNRAPGPNDRWWSQHQQSCGGNFLKVKEPEGYGQGKGSKRTNDKNKSGGPALKKTITPPRVTLDDFFKKDGKNSSDNSTSKSPTKPSTSLFTGSGQKLGGSSSTSSLLNSYPKATQNSGGNRLGGTSGGVSRLLPPVNFTSPSSAPVAEQVIDLGDSDDDDFQDMDDDALEISFVASDNSVICPSCNTEVMENLIHGHLDYCLG,not soluble
3,MSRTAVREAVKTLTAKGMVLPRPRIGTRVMPQSNWNFLDQELLTWWITEENFHQVIDHFLVMRICLEPQACLLAATVGTAEQKAHLNTLMAEMAALKENFRRERWIEVDMAWHEHIYEMSANPFLTSFASLFHSVYHTYFTSITSDTVIKLDLHQAIVDAIIQSDGDAAFKACQALLRSPDK,not soluble
4,MSRTILQPGQIEAAANIPPHLHQPSRDLFARRGERLLQLAEGHPMGDYLRLVAGLCRLQQALLDNPPALAPLDPERLRKSREHGMPPLAYDLLVREGAWLPWLDALLAGYPAPANAAVGAALEQLREAEEGQRKAWAIALLSGQFDLLPAALVPFLGAALQVAWSHWLLGLEEGAVVETESRTLCPACGSPPMAGMIRQGGKETGLRYLSCSLCACEWHYVRIKCSHCEESKHLAYLSLEHDGQPAEKAVLRAETCPSCQGYLKQFYLEFDRHADALADDLASLALDMRLAEDGYLRRSPNLLLAPGGE,soluble
5,MSRVPYGYEIIQLLEQLAPKQLAMEGDRIGLQIGTLNKPVKKVMIALDVLEDVVVEAIDQQVDLIIAHHPPLYRPLKQLLTDDGHGRMIAACIKHDIAVYAAHTNLDVADGGLNDWLAEALGLNDTAVLVPTYTEPLKKLVVYVPVTHAEVVRKALGDAGAGHIGRYSHCTFNSRGVGTFLPHEGARPFIGEQGRLEEVEEVRIETIVPASLEREAIQAMLAVHPYEEVAYDIYPLDNEGRRFGLGRIGRLPQPVTLGAFAEQVKTAFSVPAVRVVGRLDDLVQTVAVLGGDGNKFVAAAASAGADVYVTGDVYYHTAHDAQALGLHIIDPGHNVEKIMKEGVARYLITELSKRQWEAEVVASSVHTDPFQFV,not soluble
6,MSRVRTKTVKKASRVLIEKYYTRMTNDFHNNKRVCDEVAIIGSKPLRNKIAGYITHLMRRIERGPVRGISIKLQEEERERRDNYMPEISTVDPSQLTSIKVDTDTSDMLKAAGFNLPNVTVEDQGKNKGK,not soluble
7,MSRYGRYGGETKVYVGNLGTGAGKGELERAFSYYGPLRTVWIARNPPGFAFVEFEDPRDAEDAVRGLDGKVICGSRVRVELSTGMPRRSRFDRPPARRPFDPNDRCYECGEKGHYAYDCHRYSRRRRSRSRSRSHSRSRGRRYSRSRSRSRGRRSRSASPRRSRSISLRRSRSASLRRSRSGSIKGSRYFQSPSRSRSRSRSISRPRSSRSKSRSPSPKRSRSPSGSPRRSASPERMD,not soluble
8,MSSAAADESDAVLENLIAKEILPQTGNWEGTEEFLNRIVQVLLKYIKDQNDRDQKILEFHHPDKMQMLMDLSIPEKPESLLKLVKSCEDVLRLGVRTGHPRFFNQISCGLDLVSMAGEWLTATANTNMFTYEIAPVFILMEKSVMARMWEAVGWDPEKADGIFAPGGAIANLYAMNAARHQLWPRSKHLGMKDIPTLCCFTSEDSHYSIKSASAVLGIGADYCFNIPTDKNGKMIPEALEAKIIECKKEGLTPFFACCTAGSTVYGAFDPLERVANICERHKLWFHVDAAWGGGMLLSPEHRYKLAGIERANSVTWNPHKLMGALLQCSACLFRQDGLLFQCNQMSADYLFQQDKPYDVSFDTGDKAIQCGRHNDVFKLWLMWKSKGMEGYRQQINKLMDLANYFTRRIKETEGFELIIENPEFLNICFWYVPSKIRNLEPAEMRARLEKIAPKIKAGMMQRGTTMVGYQPDKQRPNFFRMIISNQAITREDLDFLIKEIVDIGESLE,not soluble
9,MSSATASIKLSNGVEMPVIGLGTWQSSPAEVITAVKTAVKAGYRLIDTASVYQNEEAIGTAIKELLEEGVVKREELFITTKAWTHELAPGKLEGGLRESLKKLQLEYVDLYLAHMPAAFNDDMSEHIASPVEDVWRQFDAVYKAGLAKAVGVSNWNNDQISRALALGLTPVHNSQVELHLYFPQHDHVDFCKKHNISVTSYATLGSPGRVNFTLPTGQKLDWAPAPSDLQDQNVLALAEKTHKTPAQVLLRYALDRGCAILPKSIQENRIKENFEVFDFSLTEEDIAKLEESKNSQRLFLQDFMTGHPEDAFAAERK,soluble
10,MSSCKSHVYVSAFLLCMLIPISQQVLNEHNQKLEWIVGKWRSEFSGKIFWPTVPTMTFGEELVINEAPIAKSANVQFLNFSARAWSHSTKDHFHDEWGFLTVDPVGNATLMTTGNNGFTTYETGTVSPNKLVLTLKDIGRISFSRDLPVEDLRRTFIRHDDRYMEQVIEMRTATHPKVGYLEHTRVVYTKLK,not soluble
11,MSSDVAGVKKSSSSSSSTSSPFMFSMLLMFSRSISSTIKISANRILLCCTSSFSTTSGFFKIESNRLTSRSSSGIFSRTACNRSCGNCFSISAVLSFCVAPLCCKSTGRFSSAIYLLIFRSTR,soluble
12,MSSEDRHLGSSCGSFIKTEPSSPSSGIDALSHHSPSGSSDASGGFGIALSTHANGLDSPPMFAGAGLGGNPCRKSYEDCTSGIMEDSAIKCEYMLNAIPKRLCLVCGDIASGYHYGVASCEACKAFFKRTIQGNIEYNCPATNECEITKRRRKSCQACRFMKCLKVGMLKEGVRLDRVRGGRQKYKRRLDSENSPYLNLPISPPAKKPLTKIVSNLLGVEQDKLYAMPPNDIPEGDIKALTTLCELADRELVFLINWAKHIPGFPSLTLGDQMSLLQSAWMEILILGIVYRSLPYDDKLAYAEDYIMDEEHSRLVGLLDLYRAILQLVRRYKKLKVEKEEFMILKALALANSDSMYIENLEAVQKLQDLLHEALQDYELSQRHEEPRRAGKLLWTLPLLRQTAAKAVQHFYSVKLQGKVPMHKLFLEMLEAKV,soluble
13,MSSEEDEIAELSKDTPPEKKRKISESGASSSSFIPESTSEESLSLKSKKSGSRKRILTASSSTNSIAMKSSASWIQEKDTPINKSDEEKSIAESLLIANFSNEQLDRYTAFKRSRFNRRIIKNVITRTTGQIPSDPLALAVAGLTKMFIGDLVEEAVELRGALNEQDRPVQPYHITRAFDKLLAEGKLWPPYGAKY,not soluble
14,MSSFDKNDERAQLMVPKSINEGKVVKLSQKTLVTKKIERQVVPEEKYIAGLDKIIEKDYFPHLKKMQAQKEYLEAVANKDINKIKELQMKFCSTGSVRTDRSFRTPITTRSTTEAPDVSSFDADTPGPSSASTSSAHDWMQSPMPFANEEGDNEALNRKRKKKKEETLTSYLNKYTSEDNASFEELAKVMREREDARRPWVYKAEEEHNKNLVTRQAIAAEADVQLALKHAVDADDNRPLNVDNWAYKAWNTVLFNPDGAALTPAEIADAARKQQTEINKRGTRFPDSGKLKPSDEAMTRAAVSHALANAGKVDFLGNEVTPANSFKLLETPNPNPDDMDSPLMTWGEIDGTPFRLDAPDVTEHSLPGAAPVFKIPEVPYREKIAQSMNDSIAAKYRDKRKVAMRAAEGAHRTPGFGSKRVSDKLAQLSPAAQKLATKKLGLKMLPAHKSPFASPKIMSNWSRPSSSKRSTTPGSAWSRGSTTPGSSWSQGAQTPGTPGIESMIRRKGDNVGPSTSAGAADRANAGDFF,not soluble
15,MSSFFPLPPAIGKSTGCGVRDESQSLVVWAIEDYSIPESIDPDMINLKIETAIVKKFNLRSSAVVTTWIFGSAENAWLAKSKVKLWESEFRVSLHKGGDKRARLNMMLADVIYYVWNWKAPTNLAVLTENKEEMEQDPKFFRFRQALENKGFFVAVEHPETLINQETAVEDPPDDSPIPYYPSDNPQKLAFWYKEDSEAYRAKYKQVRGTKRTI,soluble
16,MSSFHATTIFAVQHKGRSAMSGDGQVTFGQAVVMKHTARKVRKLFNGKVLAGFAGSVADAFTLFEKFEAKLEEYNGNLKRAAVELAKEWRSDKVLRKLEAMLIVMNQDTLLLVSGTGEVIEPDDGILAIGSGGNYALAAGRALKKHAGESMSASEIARAALETAGEICVYTNDQIILEELE,soluble
17,MSSGFAVSARSLALMATLAFAAPALAQQYGGEVDPEIRIQQLEDRLRTLTGQNEELQHRNRRLEEQVRQLQSGAGAPGAQQPAPNQATTPPAAPQQPYSQPAQQPAYGQQQPGYGQPQAPMVQPQPAAPQGGGRRGDAFDPSRDPNAPGVPRALGGGQLPMEQSGGMPAGRAAGAPMDLSNGNGGYVQGGYPQGGAPSAAKQPPAATAGGALTTQPPSQTPRDEFDLGIGYMQRRDYALAEETMRNFAQKYPDNPLTADAQYWLGESFFQRQMYRDAAEAFLAVTSKHEKSGKAPDALLRLGQSLSALKEKEAACAALGEIGRKYPQASSSVKKAVDREQKKLKC,not soluble
18,MSSLTKQFVITQSVKNVSSIADGGEHVTPSEIHYGTEWYMRIKRDNGFMSFGLYCPMTGKTTNWSIVADIRVELMPLTGMWKSVECECKIAKSPSLISEVLRSTIMPWGRMMTNYVVDDALMIEVFVTIKSMTGFERPYNLRSFDESMEEFSDVVLLVGEKKFYVLRKYLAAQSKYFKALLLGSFEEGKSSEVTLTSIDPNDFQFFLEVLYGDSAINDLTVEGILHIADMYDTPMVVRKCEEFLIKGTKLPAKKKLQMAFRYKMENFMVLFFGNIQRKVFNFFRETTTLN,not soluble
19,MSSLWLDQARGSEPACPALQGATRADVCIVGGGYTGLWTALQLREQSPGLDIVLLEAQECGAGASGRNGGFMLSWAAKFETLLKVCGTDEALRLLGESERIAADVAGYLKRHGVDAQLRQDGWLWTASNAAQVDSWMPCIELLARHGQQAFVALPADEVRRLSGSAAHLAGVLSRSSATVHPGMYVRGLRRIALAKGIRIYEHTPMRSLRARPQPTVATARGEVRAAKVVLAMNAWSTRFRELNKGVVVVGSDLVATAPHPEALEKIGLTSGVAISDSRLFTNYYRNTCAGEMVFGRGGGDFAFNGAVGRLYEGPSRFAREVAAILHRFYPALAPLGIVRSWSGPIDRSMDGLPCFGHLGGHPDIVYGYGYSGNGVGPTYLGGKFLASMVLENDDAWRHSALARGLRGRFPPEPFRYVGSRVVKAALVRKEAAEDQGQAPARLDTMLAGLAPGGLVPVARKEKALEHHHHHH,not soluble
